# Experimental data reported in the NTF2 design screens of Basanta et al. (2020).
# Test: protease stability score; higher = more stable; yeast display proteolysis, trypsin and chymotrypsin;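 further: relative to predicted unfolded state with 0 unfolded-like and 1 meaning tenfold more protease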
row,Sequence,protease stability score
1,SEEEEIYKEYAELMIHIIKTGDEDALRLLLDPNTQTFINGRNIHGMDEHIRHWRHFFKKFKNMRIEITRLEIQGDKVRIHMRIEQGDKILHLLFIIVIINGRNEEIEVRIHTQ,1.69
2,SEEEESSKYAIELLRKVVETGDWRLIQRLADPHAKIEQGDKRLHGRETVTKHLIELGIDHIKFRDSRVQGDKVELDGEVDVNGQHRDTHILIEKIDGVWVWRRFEIK,0.97
3,DEEERDAIHAFRDFVKNFITGNEDRIDELADPHMRSDINGVSIHGWEEFSRHTLREMKRFDHIEFRIRDIKIQGNYIHIDTEVILRVNGRTFSTRMVLIWLKVNGKWFLHEIDVR,1.35
4,HKLDEITKDMLEIFEKHSQTGDFQSLAKNVDPHARVDWDGRQFHGREDVQEVMIRLGVDHIEFKRIDIQGEWVHMDGQVYVNGRTTRTEFVSLKVNGRWYIHELRVR,0.875
5,DKEDREAHFLARLFLKIEETGDEETMHKYFDPHVRWIQGDWHMHGREDIIEFVRHMGVTIQMHDHEDIKVFDGRVQIKGHKRVNINGKQFEISVRIDINVINGRIRKVQIDEK,1.32
6,SEDDEEVRIALDIQRELFRTGDWRSIEEFLDPNVRVHVGDKEIHGMEELLRYYTHIMNHLGAKHWHVTEYTSIGDFVHIDGEFIQGDKTFHLKIHLLKFNGRWIIHSRIID,1.22
7,DEEEKLIRIFDKLLSRAMKTGDEHELFKLIDPHTRMVVNGRTFIGWELFSHVVRHWRIDHIDLEDFKVQGDYAHLDGRVDQTVNGVKIETRSIIINEKFNGRWNNSSVILH,0.163
8,DEHHKILTELMRDALRYEETGDWDETSKLLDPRTRLDFNGVEVIGREAYEHLLRFLGIKVFRETDMEVQGDKIKLNGRSNFNGRETEHYIYALKVDGRWILRSVEFK,1.3
9,SEEDKELEEFFRMYIHAARTGDWHTLTRLLDPNVLLMVNGRETHGMDKVKELLKRLGVDYINIEHVEVHRMDFQGDKLRMDTTEDGFVNGVRTHRSVHHILVKVDGRWYIESVHIK,2.02
10,DEDSEMVWRMLEDWLHNFLTGNEELLEHLMDPNARFEQGDKEIHGREKIAKFLRKELEDLGVKIEFRDTSIKSINGRAHNDGTNIIRVNGREIRRDTRIDLTVIDGRIKEIRIEIN,1.28
11,DEDEESNKLFEDLLSEAIRTGDWRMLRHLADPNVRVDINGKKLVGWEELMRFMHELRIDRHHSRIHDSDSQGDKMHIDVRLEIDGNINGRKHRFRIESELILVKVNGRWLLEESRVG,1.67
12,SEHKELVEHITKLSWELLKTGDEEILLHLADPDMKVEVGDKEMHGREEWARFLIETLRRVKNLRVDLHRVHIQGEKAHVDGTIFIDGVEFTDQLNFVVINGRIKHINIIDR,1.46
13,RDEDRDRHHAWREFERIMLTGDWRESEKLIDPHVRLDIDGRRHHGMEIYSTLLYHISTRADHIRVILDDIKVQGEKVEVDTIIDIHVGDKHIHIKTHIVASKINGRWFLHSLKID,0.929
14,DEVKEDTRRFFERIERALKTGDEDELKRMMDPHVQIHAENHEFHGREALRHFLERYDVVRDIKINDWRIINGRIQIDGEVEGVFNGRDKETHTIMILLKINGKWVITSLTIN,2.09
15,TEDEEAARRHTQEWIHAVRTGDEELLERMIDPEYKLDYNGVDIIGREEYIRIRSEQLQKFKNMRIEVRIHELRHQGDKIDLDVLIIEKWNGVTFRERSHLVILKFDGRWFIRFTSIK,0.801
16,SEEEEMLKIALRIMLHTIHTGDEDLFSELADPNVKIKIDGVELVGWEFAHEWMREHIEQVPNVKLKIHSVKTIDGRVDSDLIRIFDGVTHKIRLISHKINGRWLIETITVN,0.964
17,TEEDRLVDKITKELLTALTTGDEEIFLELLDPNARVEYNGKEMHGREFYRKIFEEEEKKIKNLRVEIHDYDAQGDKIHVDQRRHFNGRTYDYRLHYLVVNGKVKSVFVRIL,0.831
18,REEEEHARRLVEMYFHALLTGDEDLLKSLLDPNVKLQIGDKVHVGREELIRSLRELWDKLGIDHITLEEYRIEIQGNKIRLKLYMHLHVNGRLLQVTTDILVDKVDGRWVIQEIRVHEA,1.91
19,DEEEKLDREIEKTMKETIETGDEHLLSELIDPHARLVFNGKDFHGMEEATRFWYELVTRFKNLTFVPKDVKVFDGRLIMHGINLVNGVERRLTIVVEKINGRWVIRSIHIK,1
20,HEDEHQAEHLLEAVFHIFLTGDWRSLHELVDPNVRFDVNGRRTHGREDLIRFSRELRIHDVRFHRVKLDVYDGRVEMRIDGRIDGEINGRRTDVRSIIEIEFIKFNGQWRVESISLNFH,1.44
21,DEDKKLHHEALEVWERVLKTGNFRIESEYLDPHARNEFEGRHFHGRELFHELNEELGVENVRFHHFHVHDLETFNGRILMRFHMEGEINGQQFNVEVKVDTEKYDGVWFTRSFVER,0.38
22,DEEEEESKQVAELIITLLTTGDEERFLELADPNVRHHQGDKELHGREDLHKTVEDWGWSKVDSRLEDVEVQGEFVIVRGKMIVNGRRVDVEYIVRKVDGRWYIHMVIYH,1.07
23,DEEEERMDRAYDHWRENILTGDWKRLRELADPHAKMDINGVDIHGMETFNKILSEELKEIRLKDVHIDDKHVVDGQLHVHGKRETLFNGKNTWIKTHIHLVIIDGRFHSYTVHIE,0.281
24,SEVEKMARHFVELLSKALLTGNWKTIKELVDPNDLLVVGDKIFHGWDVREEERKRFDHHVMDVKVDHHRDIDGRIEMETTLHLDVNINGVRFHFNHETEMIVRKVNGRWILKSETIR,0.087
25,SEEEEEIERYVQHLVHNILTGDWEMIQELADPNAKIDIDGRHFHGREQFVDLMLRLIESLGIDHLRLTHVRIQGDYMELHVEVHVGDKRVELESFATKIDGRWFVKSFTKR,1.97

row,Sequence,protease stability score
1,DEEHNLSEEAMRHFFETVRTGDEELIYRLLDPNARVQINGKEHHGREDVWEFLWRNYMRADHVEVKVHHVEVQGEKVIIDLRLHVTINGKDLEIRLVLIIHKYNGRWHITELRIL,0.555
2,DEEKDIIERMSKMITRSWETGNEDWLSELADPDVKFHINGRDHHGMEEMARLWLELVLKLGVKHQTIEHLSIQGDKVHIHSRSDFNGRHMKLEIRVLLVNGKIRSVTVHLHVD,0.633
3,SDEYRRNHDLARDYVELFRTGNEEHLYELADPNTMLHIGEFQSHGREHVYEWLEKIHRHWGWENVEFRLESMQVQGDYATIHGLHKFNGRFIRMDHIIVVINGRMESIRVEIR,0.397
4,SEDDELSKHAFDMLRDSIHTGDEHLNNKLFDPHVRLYYGDKLLIGREHLTRLLFFWAKELRIELRVRHYESQGEKVDIHVELIMRVNGREQKHDVILYLEKVNGRWIMHSIEIR,0.775
5,DEDEENTRQAIDRIIRSWMTGDEKTMTELLDPRVRVEQGDKEFHGREDYTRWINEMRITHIDLRSIEKIDGRLHVHLEFDESVNGKRHRVDVELTIVKINGQWFLESVRIR,0.681
6,DEEKEIVENTTRLYWHLMETGNFDRWMKEADPNTRQDVDGKELHGMELVAHRIRELLEKFKGVRFHVEDIKIINGRSHMDIRIIIGDKHIEAHLILLVVDGRLKHVSLIIR,1.99
7,SDEEHSLKRMWKELAHAMMTGDEHTVTELLDPHVRFEYGEFDLHGREDWLEFLREIRILIHHFEVRHINNFENHINTDGFTDIIIIIGDKDIRRRRKTQYFQVKVNGQWLFRSIHVR,1.41
8,DEEEELTKRFLDIMLHNLKTGNEEEISKMADPNVKLDIGDKENHGRESMSRAWHEELRRLGAKHIDVRSVELQGDKLIIRMRLEVDGRTFEVLIIIIVVDGRLKHIQFKSH,0.704
9,DEEYESMKIAVERLVQAHKTGDEDFLRELADPHVRVEIGDKRMHGWDRFDEWFKFVHHHLRIKDVDMKEFHIQGNKMHVRLELHGHYNGRDLILERHVILLKVNGRWILHVVQLG,2.3
10,SEEEKHTREMSEMLLRTWETGDEEEYEHLADPHVRIDFNGKHYHGREEAVKLLRWLIEELGADHRTIHREEVQGEKVRLFTRVNVNGRDLRLIIRFVVINGRLTIMKIEIHTE,1.26
11,SEEEEMIEKLIRLLVKAHETGDWDTEHELMDPHVRIDINGKEIIGREDWHEHVKRMGFKHSRVEIRIRHLTTQGEKIHIHGELRVIYDIDGRTIDRSTEVHYHLRKINGKWLITEIEIR,1.69
12,DEHHERARKVAHLFMRIFETGDEDSMNELLDPNVRWVLIYGDKRFELHGWEELDKDIRRYDHHRLEMKHVEIQGNKADNDTRLRLRFDGKDIETETRLHIRVVDGVMKEVTFDIH,0.364
13,TEEHEKSEIAVELIIRTLVTGDEELMNKLIDPHVRIEFENRELVGRETYTKIYSRELRELGWEFVTTELRHIETQGEKVELQGDLVINGKRIKVHLYFHKYNGVWFLKRVHYE,1.19
14,SEEQDWLREALEIFEKTIHTGDEDTSKELADPHVRSIINGKDFVGMEIWTKILEELNKRYDHIELVFHKVENINGRVIIHGTDTIRVDGVERKIDTIIYARKVNGKWLSKSVEMR,1.34
15,DRHEETDRRAVKILLEVIRTGDFETFYRLMDPHARYEYGEKELHGRDKSLKLLEELLRRFGHDKVEVHLKTYSAIDGRMEIHSVVNYNGREHNLHIESDKVNGRWEIRDIHVL,1.09
16,SEEEERLRRFFEEFIKWHVTGDEEHLERLMDPNAKFIVNGVESHGWENTSRHLKELRIHELNIRRVEIVNGRIHISGLAKGEFNGRHRETTVHIHIVVIDGRVKEMSIEVR,2.48
17,NHDEEKTHEFKEKWMKDVTTGNEEEISKLMDPNAKIVVNGREYHGREKMWETIHRLLKILGISRVEVRIESVHIYDGRIEIHMRVHAENHESHIIVHVEKIDGRWSSKHLRID,0.968
18,DERDEEAHRMTETFYELQRTGDEESTHHLADPHVKFEYLIGDKYFEIHGWDRVLEFWLRYKGVREEIDHRRVRVINGKIHIELIVKIRIGDKTHVHRIELNIEKVDGRWILREVRVEVK,1
19,DEDESLAKWAVEVLFEDLRTGDEDHLRRLMDPDTRFIIGDKIFHGREKAEEWLRLNRKRVDHLESFHIHHITVDENHLRVHGRVVGTFDGVEDKYETHIFARKVNGRWHHRQLKIK,1.49
20,SEEDKHTEKLVRELWHAFETGDEDFILDMADPDVKFDFNGRKNVGREEFSRIWEDIFRRFKNIQLELTSITFQGHKVHTKGRTRINGKHHELIVHVVIVNGRLESLTIIIN,1.49
21,DEETEEERKITELSLKAYKTGDEDTLSSLIDPHARFIYNGRHHHGRETASHILRRETERLGVKHIHLKDTEIDDVNGVVDMRIHMMVHYGNKTTELIIILRITKFNGRWIIETIEVRVR,0.691
22,SEEHKQIEEFLTRFYRFKKTGDEKMLSRMADPNYKMDIDGQDVHGREEYEEASRRFDHIHHIKLRQFERQGNKVYLDIEVDGEVNGRQTKHTSTLILLKIDGRWYIEHVHWE,0.722
23,DEDEELTRQIIEHIERNIETGDERRYRELVDPNARVDYNGVDKHGMHAILEVWNHIQHEFRGATIEHSRVRDWRFQGDKVILNFEHYFRIGDKNWRLDTRIIVDKVDGRWVIREVQIR,1.47
24,DEIDHRAREVAERILKSMLTGDFDTLRELMDPHVRVILSVNGRENHTVGREWFAHVVKEWIDRVDVHQIDVERVELQGEKVHMDTNLRIHYGDKSITRKTEIIIDVVDGRVHYVRFIIR,2.52
25,DEEEKALDHAWRRFLETLKTGDERKFHELLDPNVQIDWNGRKLHGMHLIVDIIRRVKNLKSHEIHIRHITVIGDKVEFRSDIRGTVDGVDTEIHTRYLFLKIDGQWVLHHEEIV,2.22
